# T1: Human OSCAR (osteoclast-associated receptor), full length, on cells (human)
# T1 construct: also called hOSCAR; HEK-OSCAR cells
# T1 chain: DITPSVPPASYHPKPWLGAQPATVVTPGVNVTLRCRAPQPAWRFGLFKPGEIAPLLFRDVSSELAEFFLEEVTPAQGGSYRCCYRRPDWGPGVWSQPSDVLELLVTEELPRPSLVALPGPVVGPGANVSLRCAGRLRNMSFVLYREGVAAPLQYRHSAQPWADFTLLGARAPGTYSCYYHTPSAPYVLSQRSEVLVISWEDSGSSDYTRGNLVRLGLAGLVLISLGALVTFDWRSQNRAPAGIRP
# Key:
# [1] = target: T1, Human OSCAR (osteoclast-associated …); assay: flow cytometry on human monocytes (CD14+ PBMC), Alexa Fluor 647-labelled mAb at 0.5 ug/ml
# Human collagen I = target: T2, Human collagen I (human, UniProt P02452 162-1218; P08123 80-1119); assay: SPR
# T2 construct: Bought (Sigma C5483); also called ColI; collagen 1
# T2 sequence (P02452 162-1218, chain 1 of 2): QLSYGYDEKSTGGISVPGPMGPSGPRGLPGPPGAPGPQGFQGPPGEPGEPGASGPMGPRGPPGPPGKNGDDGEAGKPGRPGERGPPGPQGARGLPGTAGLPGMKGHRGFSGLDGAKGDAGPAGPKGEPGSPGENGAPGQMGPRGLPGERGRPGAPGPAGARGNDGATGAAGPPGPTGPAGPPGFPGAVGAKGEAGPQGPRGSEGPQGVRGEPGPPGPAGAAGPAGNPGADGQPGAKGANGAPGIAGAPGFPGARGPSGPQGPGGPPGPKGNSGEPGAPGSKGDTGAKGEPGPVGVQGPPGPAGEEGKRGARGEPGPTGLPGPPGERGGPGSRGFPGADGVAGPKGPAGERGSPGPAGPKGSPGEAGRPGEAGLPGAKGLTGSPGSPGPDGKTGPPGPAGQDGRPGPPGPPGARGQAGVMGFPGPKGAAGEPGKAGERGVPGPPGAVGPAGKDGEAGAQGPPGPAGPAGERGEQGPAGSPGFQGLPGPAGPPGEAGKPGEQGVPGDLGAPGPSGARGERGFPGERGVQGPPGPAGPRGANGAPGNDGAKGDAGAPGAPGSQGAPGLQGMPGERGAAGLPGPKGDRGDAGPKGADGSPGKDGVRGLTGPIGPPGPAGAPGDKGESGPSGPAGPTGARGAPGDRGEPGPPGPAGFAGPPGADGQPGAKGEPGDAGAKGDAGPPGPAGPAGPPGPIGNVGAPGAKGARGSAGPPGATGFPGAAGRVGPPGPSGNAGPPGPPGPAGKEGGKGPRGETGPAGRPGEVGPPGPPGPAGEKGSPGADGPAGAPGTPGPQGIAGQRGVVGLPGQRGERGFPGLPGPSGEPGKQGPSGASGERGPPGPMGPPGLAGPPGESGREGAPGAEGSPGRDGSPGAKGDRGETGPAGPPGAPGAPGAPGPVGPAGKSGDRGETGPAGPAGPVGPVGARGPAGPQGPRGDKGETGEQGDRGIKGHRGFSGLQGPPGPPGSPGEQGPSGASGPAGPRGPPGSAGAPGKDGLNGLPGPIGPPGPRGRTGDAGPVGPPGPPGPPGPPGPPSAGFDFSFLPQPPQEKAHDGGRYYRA
# T2 sequence (P08123 80-1119, chain 2 of 2): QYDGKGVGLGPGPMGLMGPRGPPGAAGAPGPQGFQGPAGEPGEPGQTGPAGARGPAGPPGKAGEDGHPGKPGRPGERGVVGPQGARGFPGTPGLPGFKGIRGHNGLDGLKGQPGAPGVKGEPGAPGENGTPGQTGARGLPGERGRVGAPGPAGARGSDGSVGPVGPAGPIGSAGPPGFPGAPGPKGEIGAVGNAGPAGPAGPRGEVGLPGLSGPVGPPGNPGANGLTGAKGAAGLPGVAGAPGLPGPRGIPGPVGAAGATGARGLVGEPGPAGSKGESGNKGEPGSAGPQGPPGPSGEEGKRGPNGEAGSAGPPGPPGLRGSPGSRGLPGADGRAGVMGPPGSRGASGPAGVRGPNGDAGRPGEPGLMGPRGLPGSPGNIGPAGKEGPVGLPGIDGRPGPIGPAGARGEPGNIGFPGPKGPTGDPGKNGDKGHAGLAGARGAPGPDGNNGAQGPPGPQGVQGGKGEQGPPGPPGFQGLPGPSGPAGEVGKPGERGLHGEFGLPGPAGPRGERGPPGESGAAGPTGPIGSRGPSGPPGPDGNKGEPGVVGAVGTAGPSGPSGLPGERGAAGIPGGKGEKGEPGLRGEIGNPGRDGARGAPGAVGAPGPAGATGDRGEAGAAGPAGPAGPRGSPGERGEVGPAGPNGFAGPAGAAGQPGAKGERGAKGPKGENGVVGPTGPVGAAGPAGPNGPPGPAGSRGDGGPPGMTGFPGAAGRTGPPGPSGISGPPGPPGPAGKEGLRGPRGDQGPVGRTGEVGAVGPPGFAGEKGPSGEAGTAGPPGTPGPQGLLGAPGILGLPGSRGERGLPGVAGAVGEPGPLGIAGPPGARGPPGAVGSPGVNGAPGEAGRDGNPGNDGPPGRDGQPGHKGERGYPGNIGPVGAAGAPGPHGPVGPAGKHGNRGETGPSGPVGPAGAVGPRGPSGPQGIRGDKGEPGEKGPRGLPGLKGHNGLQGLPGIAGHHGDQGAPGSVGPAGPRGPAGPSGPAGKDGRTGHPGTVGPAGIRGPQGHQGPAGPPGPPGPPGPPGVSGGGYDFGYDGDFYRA
binding result [1],Kd (Human collagen I),Binder
binds,–,"anti-OSCAR mAb 13F5A5 (antibody, V domains shown, Fully human mAb (HuMab mice)) VH: EVQLVQSGAEVKKPGESLKISCKGSGYSFTSYWIVWVRQMPGKGLEWMGSIYPGDSDARYSPSFQGQVTISADKSISTAYLQWSSLKASDTAMYYCARQKITMVRGVIITPLDGMDVWGQGTTVTVSS VL: not shown"
–,255 nM,"recombinant extracellular domain of human OSCAR (OSCAR-ECD) (receptor, The printed entry starts with the putative signal peptide; also called Human OSCAR-ECD; OSACAR-ECD) DITPSVPPASYHPKPWLGAQPATVVTPGVNVTLRCRAPQPAWRFGLFKPGEIAPLLFRDVSSELAEFFLEEVTPAQGGSYRCCYRRPDWGPGVWSQPSDVLELLVTEELPRPSLVALPGPVVGPGANVSLRCAGRLRNMSFVLYREGVAAPLQYRHSAQPWADFTLLGARAPGTYSCYYHTPSAPYVLSQRSEVLVISWEDSGSSDYTR"
binds,–,"anti-OSCAR mAb 16F56A2 (antibody, V domains shown, Human mAb) VH: QVQLVQSGAEVKKPGSSVKVSCKASGGTFSNYAISWVRQAPGQGLEWMGRIIPILGIAHNAQKFQDRVTITADKSTSTAYMELSSLRSEDTAVYYCASPSSGKGLPYWFFDLWGRGTLVTVSS VL: DIQMTQSPSFLSASVGDRVTITCRASQSISSYLNWYQQKPGKAPKLLIYAASSLQSGVPSRFSGSGSGTDFTLTISSLQPEDFATYYCQCGYSTPLTFGGGTKVEIKR"
